# Measured values reported in paper PMC6572788 (2019).
# B1: nanobody T8 (VHH)
# VHH: QVQLQESGGGLVQPGGSLRLSCAASGSTSSINAMGWYRQAPGKQREPVAISSSGGDTRYAEPVKGRFTISRDNAQNKVYLQMNSLKPEDTAVYYCWLNWGRTSVNSWGQGTQVTVSS
# B2: nanobody T2a (VHH)
# VHH: QVQLQESGGGLVQAGGSLRLSCAASGSIFRIDAMGWYRQAPGKQRELVAHSTSGGSTDYADSVKGRFTISRDNAKNTVYLQMNSLKPEDTAVYYCNADVRTRWYASNNYWGQGTQVTVSS
# B3: nanobody D12 (VHH)
# VHH: QVQLQESGGGLVQAGSSLRLACAATGSIRSINNMGWYRQAPGKQRGMVAIITRVGNTDYADSVKGRFTISRDNAKNTVYLQMNSLKPEDTATYYCHAEITEQSRPFYLTDDYWGQGTQVTVSS
# B4: nanobody T4 (VHH)
# VHH: QVQLQESGGGLVQAGGSLRLSCAASGSTFAIIAMGWYRQAPGKQRELVAVISTGDTRYADSVKGRFTISRDNAKNTVYLQMDSLRPEDTAVYYCNAAVQVRDYRNYWGQGTQVTVSS
# B5: nanobody G3a (VHH)
# VHH: QVQLQESGGGLVQAGGSLRLSCTASGRAFSWYVMGWFRQAPGKEREFVATVSGNGSRRDYADSVKGRFTISRDNAKNTVYLQMNSLKPEDTAVYYCAASSTYYYTDPEKYDYWGQGTQVTVSS
# B6: nanobody T27 (VHH)
# VHH: QVQLQESGGGLEQPGGSLRLSCATSGVIFGINAMGWYRQAPGKQRELVATFTSGGSTNYADFVEGRFTISRDNAKNTVYLQMNGLRPEDTAVYYCHATVVVSRYGLTYDYWGQGTQVTVSS
# What was measured:
# [1] = molecular target: T1, 2PT-NBD1 (human CFTR NBD1, residues 387–646, S492P/A534P/I539T) (human, UniProt P13569 387-646, S492P | A534P | I539T, biotin (in the ELISA; site not stated)); assay: ELISA; printed as pEC50 7.9
# T1 sequence (P13569 387-646 S492P/A534P/I539T): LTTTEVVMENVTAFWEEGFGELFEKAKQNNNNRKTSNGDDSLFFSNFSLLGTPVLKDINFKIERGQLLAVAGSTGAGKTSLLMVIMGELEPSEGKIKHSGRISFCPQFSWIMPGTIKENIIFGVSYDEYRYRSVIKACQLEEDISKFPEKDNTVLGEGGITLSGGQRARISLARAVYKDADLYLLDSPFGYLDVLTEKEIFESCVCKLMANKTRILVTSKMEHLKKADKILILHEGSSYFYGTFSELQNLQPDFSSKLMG
# [2] = molecular target: T1, 2PT-NBD1 (human CFTR NBD1, residues …); assay: ELISA; printed as pEC50 7.6
# [3] = molecular target: T1, 2PT-NBD1 (human CFTR NBD1, residues …); assay: ELISA; printed as pEC50 8.4
# [4] = molecular target: T1, 2PT-NBD1 (human CFTR NBD1, residues …); assay: ELISA; printed as pEC50 5.8
# [5] = molecular target: T1, 2PT-NBD1 (human CFTR NBD1, residues …); assay: ELISA; printed as pEC50 8.7
binder,measurement,setting,value
B1,EC50,[1],12.6 nM
B2,EC50,[1],12.6 nM
B3,EC50,[2],25.1 nM
B4,EC50,[3],3.98 nM
B5,EC50,[4],1580 nM
B6,EC50,[5],2 nM
